Measured values from US20170240628A1 (CELLMID, published 2017).

T1: recombinant human midkine (huMK) (human, UniProt P21741 21-143)
T1 construct: also called human MK; Human MK
T1 sequence (looked up): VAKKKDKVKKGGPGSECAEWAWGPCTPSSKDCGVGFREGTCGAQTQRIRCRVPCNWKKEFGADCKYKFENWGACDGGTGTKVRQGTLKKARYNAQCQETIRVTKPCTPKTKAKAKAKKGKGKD

T2: recombinant murine midkine (muMK) (murine, UniProt P12025 23-140)
T2 construct: also called murine MK; Murine MK
T2 sequence (looked up): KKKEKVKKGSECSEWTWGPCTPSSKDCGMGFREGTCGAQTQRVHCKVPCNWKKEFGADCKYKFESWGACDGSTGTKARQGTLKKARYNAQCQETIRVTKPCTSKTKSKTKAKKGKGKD


Assays:
[1] = biological target: T1, recombinant human midkine (huMK); experiment: ELISA, plate coated with huMK
Protocol: (§1) The binding specificity and affinity of the humanised anti-MK antibodies to recombinant human MK (huMK) and murine MK (muMK) was assessed by ELISA. ELISA plates (Nunc Immuno MaxiSorp 96 well flat-bottom were coated with 100 uL of 2 ug/mL of either huMK or muMK in 2% BSA/PBS (overnight at room temperature). After washing, blocking (1 h at 37° C.), and washing again, the humanised anti-MK and chimeric antibodies described in Example 1 were analysed for binding to huMK or muMK at concentrations ranging between 3 μg/ml and 0.00004 μg/ml in 2% BSA/PBS (1 h at 37° C.). After washing, the binding of antibody was detected with goat anti-mouse IgG (Fab specific)-HRP conjugate (Sigma, Cat. No. A9917) and SigmaFast OPD substrate (Sigma, Cat. No. P9187). The reaction was stopped with 3 M HCl, absorbance read at 490 nm on a Dynex Technologies MRX TC II plate reader and the binding curves plotted. Binding affinity data for the humanised anti-MK antibodies to huMK and muMK are presented in Table 6 and Table 7 respectively, and in FIG. 3.

[2] = biological target: T2, recombinant murine midkine (muMK); experiment: ELISA, plate coated with muMK
Protocol: as §1

Binder	EC50 [1]	EC50 [2]
IP14-H5L2 (antibody, V domains shown, also called Hv5 Lv2) VH: QVQLVQSGGGLVQPGGSLRLSCAASGQSFSSYWMNWVRQAPGQGLEWIGMIHPSDSETILNQKFKDKATLTVDISKNTAYLQMNSLRAEDTAVYYCSSWSAKRGDFWGQGTLVTVSS VL: EIVLTQSPATLSLSPGERATLSCRASESISNNLHWYQQKPGQAPRLLIKYASQSISGIPARFSGSGPGTDFTLTISSVEPEDFAVYYCQQSNSWPLTFGGGTKLEIKR	0.069 nM	0.054 nM
IP14-H5L1 (antibody, V domains shown, also called Hv5 Lv1) VH: QVQLVQSGGGLVQPGGSLRLSCAASGQSFSSYWMNWVRQAPGQGLEWIGMIHPSDSETILNQKFKDKATLTVDISKNTAYLQMNSLRAEDTAVYYCSSWSAKRGDFWGQGTLVTVSS VL: EIVLTQSPATLSLSPGERANLSCRASESISNNLHWYQQKPHQAPRLLIKYASQSISGIPARFSGSGPGTDFNLTISSVEPEDFAVYYCQQSNSWPLTFGGGTKLEIKR	0.062 nM	0.052 nM
IP14-H5L3 (antibody, V domains shown, also called hIP14-H5L3; Hv5 Lv3) VH: QVQLVQSGGGLVQPGGSLRLSCAASGQSFSSYWMNWVRQAPGQGLEWIGMIHPSDSETILNQKFKDKATLTVDISKNTAYLQMNSLRAEDTAVYYCSSWSAKRGDFWGQGTLVTVSS VL: DIVLTQSPATLSLSPGERATLSCRASESISNNLHWYQQKPGQAPRLLIYYASQSISGIPARFSGSGPGTDFTLTISSLEPEDFAVYYCQQSNSWPLTFGGGTKLEIKR	0.068 nM	0.05 nM
IP14-H5L7 (antibody, V domains shown, also called Hv5 Lv7) VH: QVQLVQSGGGLVQPGGSLRLSCAASGQSFSSYWMNWVRQAPGQGLEWIGMIHPSDSETILNQKFKDKATLTVDISKNTAYLQMNSLRAEDTAVYYCSSWSAKRGDFWGQGTLVTVSS VL: DIVLTQSPATLSLSPGERANLSCRASESISNNLHWYQQKPHQAPRLLIYYASQSISGVPARFSGSGSGTDFNLTISSVEPEDFAVYYCQQSNSWPLTFGQGTKVEIKR	0.067 nM	0.059 nM
IP14-H6L1 (antibody, V domains shown, also called Hv6 Lv1) VH: QVQLVQSGGGLVKPGHSLRLSCAASGQSFSSYWMNWVRQAPGKGLEWIGMIHPSDSETILNQKFKDKATLSVDIAKNSAYLQMNSLRAEDTAVYYCSSWSAKRGDFWGQGTLVTVSS VL: EIVLTQSPATLSLSPGERANLSCRASESISNNLHWYQQKPHQAPRLLIKYASQSISGIPARFSGSGPGTDFNLTISSVEPEDFAVYYCQQSNSWPLTFGGGTKLEIKR	0.097 nM	0.032 nM
IP14-H6L2 (antibody, V domains shown, also called hIP14-H6L2; Hv6 Lv2) VH: QVQLVQSGGGLVKPGHSLRLSCAASGQSFSSYWMNWVRQAPGKGLEWIGMIHPSDSETILNQKFKDKATLSVDIAKNSAYLQMNSLRAEDTAVYYCSSWSAKRGDFWGQGTLVTVSS VL: EIVLTQSPATLSLSPGERATLSCRASESISNNLHWYQQKPGQAPRLLIKYASQSISGIPARFSGSGPGTDFTLTISSVEPEDFAVYYCQQSNSWPLTFGGGTKLEIKR	0.041 nM	0.072 nM
IP14-H2L2 (antibody, V domains shown, also called Hv2 Lv2) VH: QVQLVQSGAEVKKPGASVKVSCKASGQSFSSYWMNWVRQAPGQGLEWIGMIHPSDSETILNQKFKDKATLTVDISTSTAYMELSSLRSEDTAVYYCSSWSAKRGDFWGQGTLVTVSS VL: EIVLTQSPATLSLSPGERATLSCRASESISNNLHWYQQKPGQAPRLLIKYASQSISGIPARFSGSGPGTDFTLTISSVEPEDFAVYYCQQSNSWPLTFGGGTKLEIKR	0.1 nM	0.087 nM
IP14-H1L1 (antibody, V domains shown, also called Hv1 Lv1) VH: QVQLVQSGAEVKKPGHSVKVSCKASGQSFSSYWMNWVRQAPGQGLEWIGMIHPSDSETILNQKFKDKATLTVDISTSTAYMELSSPRSEDTAVYYCSSWSAKRGDFWGQGTLVTVSS VL: EIVLTQSPATLSLSPGERANLSCRASESISNNLHWYQQKPHQAPRLLIKYASQSISGIPARFSGSGPGTDFNLTISSVEPEDFAVYYCQQSNSWPLTFGGGTKLEIKR	0.056 nM	0.044 nM
IP14-H1L2 (antibody, V domains shown, also called Hv1 Lv2) VH: QVQLVQSGAEVKKPGHSVKVSCKASGQSFSSYWMNWVRQAPGQGLEWIGMIHPSDSETILNQKFKDKATLTVDISTSTAYMELSSPRSEDTAVYYCSSWSAKRGDFWGQGTLVTVSS VL: EIVLTQSPATLSLSPGERATLSCRASESISNNLHWYQQKPGQAPRLLIKYASQSISGIPARFSGSGPGTDFTLTISSVEPEDFAVYYCQQSNSWPLTFGGGTKLEIKR	0.065 nM	0.051 nM
IP14-H1L3 (antibody, V domains shown, also called hIP14-H1L3; Hv1 Lv3) VH: QVQLVQSGAEVKKPGHSVKVSCKASGQSFSSYWMNWVRQAPGQGLEWIGMIHPSDSETILNQKFKDKATLTVDISTSTAYMELSSPRSEDTAVYYCSSWSAKRGDFWGQGTLVTVSS VL: DIVLTQSPATLSLSPGERATLSCRASESISNNLHWYQQKPGQAPRLLIYYASQSISGIPARFSGSGPGTDFTLTISSLEPEDFAVYYCQQSNSWPLTFGGGTKLEIKR	0.063 nM	0.089 nM
IP14-H1L7 (antibody, V domains shown, also called Hv1 Lv7) VH: QVQLVQSGAEVKKPGHSVKVSCKASGQSFSSYWMNWVRQAPGQGLEWIGMIHPSDSETILNQKFKDKATLTVDISTSTAYMELSSPRSEDTAVYYCSSWSAKRGDFWGQGTLVTVSS VL: DIVLTQSPATLSLSPGERANLSCRASESISNNLHWYQQKPHQAPRLLIYYASQSISGVPARFSGSGSGTDFNLTISSVEPEDFAVYYCQQSNSWPLTFGQGTKVEIKR	0.043 nM	0.081 nM
IP14-H1L8 (antibody, V domains shown, also called hIP14-H1L8; Hv1 Lv8) VH: QVQLVQSGAEVKKPGHSVKVSCKASGQSFSSYWMNWVRQAPGQGLEWIGMIHPSDSETILNQKFKDKATLTVDISTSTAYMELSSPRSEDTAVYYCSSWSAKRGDFWGQGTLVTVSS VL: DIVLTQSPATLSLSPGERATLSCRASESISNNLHWYQQKPHQAPRLLIYYASQSISGVPARFSGSGSGTDFTLTISSVEPEDFAVYYCQQSNSWPLTFGQGTKVEIKR	0.05 nM	0.089 nM
IP14 Hv0 Lv2 (antibody, V domains shown) VH: QVQLQQPGAELVRPGHSVKLSCKASGQSFSSYWMNWVRQRPGQGLEWIGMIHPSDSETILNQKFKDKATLTVDISSNTAYMQLSSPTSEDSAVYFCSSWSAKRGDFWGQGTTLTVSS VL: EIVLTQSPATLSLSPGERATLSCRASESISNNLHWYQQKPGQAPRLLIKYASQSISGIPARFSGSGPGTDFTLTISSVEPEDFAVYYCQQSNSWPLTFGGGTKLEIKR	0.095 nM	–
IP14 Hv0 Lv1 (antibody, V domains shown) VH: QVQLQQPGAELVRPGHSVKLSCKASGQSFSSYWMNWVRQRPGQGLEWIGMIHPSDSETILNQKFKDKATLTVDISSNTAYMQLSSPTSEDSAVYFCSSWSAKRGDFWGQGTTLTVSS VL: EIVLTQSPATLSLSPGERANLSCRASESISNNLHWYQQKPHQAPRLLIKYASQSISGIPARFSGSGPGTDFNLTISSVEPEDFAVYYCQQSNSWPLTFGGGTKLEIKR	0.093 nM	–
IP14 Hv0 Lv3 (antibody, V domains shown) VH: QVQLQQPGAELVRPGHSVKLSCKASGQSFSSYWMNWVRQRPGQGLEWIGMIHPSDSETILNQKFKDKATLTVDISSNTAYMQLSSPTSEDSAVYFCSSWSAKRGDFWGQGTTLTVSS VL: DIVLTQSPATLSLSPGERATLSCRASESISNNLHWYQQKPGQAPRLLIYYASQSISGIPARFSGSGPGTDFTLTISSLEPEDFAVYYCQQSNSWPLTFGGGTKLEIKR	0.09 nM	–
IP14 Hv0 Lv7 (antibody, V domains shown) VH: QVQLQQPGAELVRPGHSVKLSCKASGQSFSSYWMNWVRQRPGQGLEWIGMIHPSDSETILNQKFKDKATLTVDISSNTAYMQLSSPTSEDSAVYFCSSWSAKRGDFWGQGTTLTVSS VL: DIVLTQSPATLSLSPGERANLSCRASESISNNLHWYQQKPHQAPRLLIYYASQSISGVPARFSGSGSGTDFNLTISSVEPEDFAVYYCQQSNSWPLTFGQGTKVEIKR	0.092 nM	–
IP14 Hv0 Lv8 (antibody, V domains shown) VH: QVQLQQPGAELVRPGHSVKLSCKASGQSFSSYWMNWVRQRPGQGLEWIGMIHPSDSETILNQKFKDKATLTVDISSNTAYMQLSSPTSEDSAVYFCSSWSAKRGDFWGQGTTLTVSS VL: DIVLTQSPATLSLSPGERATLSCRASESISNNLHWYQQKPHQAPRLLIYYASQSISGVPARFSGSGSGTDFTLTISSVEPEDFAVYYCQQSNSWPLTFGQGTKVEIKR	0.08 nM	–
IP14 Hv0 Lv4 (antibody, V domains shown) VH: QVQLQQPGAELVRPGHSVKLSCKASGQSFSSYWMNWVRQRPGQGLEWIGMIHPSDSETILNQKFKDKATLTVDISSNTAYMQLSSPTSEDSAVYFCSSWSAKRGDFWGQGTTLTVSS VL: EIVLTQSPDFQSVTPKEKVNITCRASESISNNLHWYQQKPHQSPKLLIYYASQSISGVPSRFSGSGSGTDFNLTINSVEAEDAATYYCQQSNSWPLTFGGGTKLEIKR	0.108 nM	–
IP14 Hv0 Lv6 (antibody, V domains shown) VH: QVQLQQPGAELVRPGHSVKLSCKASGQSFSSYWMNWVRQRPGQGLEWIGMIHPSDSETILNQKFKDKATLTVDISSNTAYMQLSSPTSEDSAVYFCSSWSAKRGDFWGQGTTLTVSS VL: EIVLTQSPSTLSASVGDRVNITCRASESISNNLHWYQQKPHKAPKLLIYYASQSISGVPSRFSGSGSGTEFNLTISSVQPDDFATYYCQQSNSWPLTFGQGTKVEIKR	0.132 nM	–
